# Data reported in patent US20210403593A1 (TIZONA THERAPEUTICS, published 2021).
# Residue numbers refer to the chain shown, from its start.
# T1: cynomolgus macaque (Macaca fascicularis) CD39 (Macaca fascicularis, UniProt P49961 7-510 (human entry))
# T1 construct: On engineered CHO cells and on primary cyno B cells and monocytes; also called cyno CD39; cCD39
# T1 chain: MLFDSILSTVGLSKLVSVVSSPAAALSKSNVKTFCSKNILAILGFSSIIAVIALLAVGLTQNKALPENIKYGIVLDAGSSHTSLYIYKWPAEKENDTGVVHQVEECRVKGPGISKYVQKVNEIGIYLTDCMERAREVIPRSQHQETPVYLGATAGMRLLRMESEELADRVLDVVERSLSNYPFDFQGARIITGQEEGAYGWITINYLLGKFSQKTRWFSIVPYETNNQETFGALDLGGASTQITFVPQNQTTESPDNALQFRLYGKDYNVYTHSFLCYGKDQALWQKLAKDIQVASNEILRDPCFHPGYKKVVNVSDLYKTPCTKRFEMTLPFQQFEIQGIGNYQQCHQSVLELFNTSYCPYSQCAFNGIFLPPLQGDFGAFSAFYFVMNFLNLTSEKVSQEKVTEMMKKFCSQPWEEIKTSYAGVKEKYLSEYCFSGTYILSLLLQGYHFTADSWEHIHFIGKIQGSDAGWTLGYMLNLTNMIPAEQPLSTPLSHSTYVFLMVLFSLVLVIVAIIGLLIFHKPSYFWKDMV
# T2: human CD39 (cellular) (human, UniProt P49961 1-510)
# T2 construct: Same protein on engineered CHO cells and on cells that express it endogenously; also called hCD39; cellular CD39
# T2 sequence: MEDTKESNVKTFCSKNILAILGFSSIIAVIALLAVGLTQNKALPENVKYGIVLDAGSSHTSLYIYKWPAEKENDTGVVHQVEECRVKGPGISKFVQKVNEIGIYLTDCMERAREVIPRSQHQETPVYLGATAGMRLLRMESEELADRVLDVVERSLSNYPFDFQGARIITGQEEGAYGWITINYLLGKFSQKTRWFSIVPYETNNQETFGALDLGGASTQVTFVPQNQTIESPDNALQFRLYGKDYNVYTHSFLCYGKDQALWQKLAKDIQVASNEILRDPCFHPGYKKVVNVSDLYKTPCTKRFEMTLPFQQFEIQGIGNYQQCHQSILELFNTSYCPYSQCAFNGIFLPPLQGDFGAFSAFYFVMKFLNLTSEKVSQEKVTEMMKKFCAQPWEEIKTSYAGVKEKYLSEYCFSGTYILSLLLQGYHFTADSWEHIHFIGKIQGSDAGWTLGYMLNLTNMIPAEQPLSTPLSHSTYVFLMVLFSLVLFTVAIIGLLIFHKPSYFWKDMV
# T3: Chimera #9 (Homo sapiens (Human), UniProt P49961 1-510)
# T3 construct: Expressed on CHO cells
# T3 chain: T2 sequence with E143Q, L144S, R147E, V151A, E153S, R154T, S157K, N158S
# T4: Chimera #10 (Homo sapiens (Human), UniProt P49961 1-510)
# T4 construct: Expressed on CHO cells
# T4 chain: T2 sequence with E143Q, L144S, R147E, D150A, V151A, R154T, S157K, N158S
# T5: Chimera #4 (Homo sapiens (Human), UniProt P49961 1-510)
# T5 construct: Expressed on CHO cells
# T5 chain: T2 sequence with N275G, E276G, I277V
# T6: Chimera #2 (human, UniProt P49961 1-510)
# T6 construct: Expressed on CHO cells; also called human-mouse Chimera #2
# T6 chain: T2 sequence with E143Q, L144S, R147E, D150A, V151A, E153S, R154T, S157K, N158S
# B1: 31414 (antibody, human IgG4 S228P, kappa, V domains shown)
# VH: QVQLVQSGAEVKKPGASVKVSCKASGYTFKSYEMHWVRQAPGQGLEWMGRINPSVGSTWYAQKFQGRVTMTRDTSTSTVYMELSSLRSEDTAVYYCARGKREGGTEYLRNWGQGTLVTVSS
# VL: EIVLTQSPGTLSLSPGERATLSCRASQSVSSSYLAWYQQKPGQAPRLLIYGASSRATGIPDRFSGSGSGTDFTLTISRLEPEDFAVYYCQQYHSYITFGGGTKVEIKR
# B2: 31891 (antibody, human IgG4 S228P, kappa, V domains shown)
# VH: B1 VH with T28I, N110V
# VL: B1 VL with G51Y, T57Y, S94N, Y95A
# B3: 31430 (antibody, human IgG4 S228P, kappa, V domains shown)
# VH: B1 VH with V55G, N110H
# VL: B1 VL with R24E, S31Y, T57N, Y95A, I96L
# B4: 31415 (antibody, human IgG4 S228P, kappa, V domains shown)
# VH: B1 VH with K30T, E33Q, V55G, N110S
# VL: B1 VL
# B5: 31393 (antibody, human IgG4 S228P, kappa, V domains shown)
# VH: QVQLVQSGAEVKKPGSSVKVSCKASGGTFESYGISWVRQAPGQGLEWMGSIIPEFGIANYAQKFQGRVTITADESTSTTYMELSSLRSEDTAVYYCARESGGYRDHRLDVWGQGTMVTVSS
# VL: EIVMTQSPATLSVSPGERATLSCRASQSVGSNLAWYQQKPGQAPRLLIYGASTRATGIPARFSGSGSGTEFTLTISSLQSEDFAVYYCQQYLLWPLTFGGGTKVEIKR
# B6: 31861 (antibody, human IgG4 S228P, kappa, V domains shown)
# VH: B5 VH with E30G, T79A, G102T
# VL: B5 VL
# B7: 31873 (antibody, human IgG4 S228P, kappa, V domains shown)
# VH: B5 VH with E30S, S31K, T79A, D109G
# VL: B5 VL with T56S
# B8: 28347 (antibody, V domains shown)
# VH: QVQLVQSGAEVKKPGSSVKVSCKASGGTFSSLAISWVRQAPGQGLEWMGGIIPIFGTANYAQKFQGRVTITADESTNTAYMELSSLRSEDTAVYYCARGGAKYASTYGMDVWGQGTTVTVSS
# VL: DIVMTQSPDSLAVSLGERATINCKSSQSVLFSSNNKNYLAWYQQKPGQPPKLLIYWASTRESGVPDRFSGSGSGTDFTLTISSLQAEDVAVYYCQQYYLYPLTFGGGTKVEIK
# B9: 31896 (antibody, V domains shown)
# VH: QVQLVQSGAEVKKPGSSVKVSCKASGGTFSKLAISWVRQAPGQGLEWMGGIGFGTANYAQKFQGRVTITADESASTAYMELSSLRSEDTAVYYCARGGAKYASTHGMDVWGQGTTVTVSS
# VL: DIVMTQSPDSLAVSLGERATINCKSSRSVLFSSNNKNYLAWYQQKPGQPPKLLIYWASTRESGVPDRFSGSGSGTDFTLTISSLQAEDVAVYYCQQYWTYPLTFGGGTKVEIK
# B10: 31915 (antibody, human IgG4 S228P, kappa, V domains shown)
# VH: B9 VH with K31S, A33P, A74T, T104K, H105W
# VL: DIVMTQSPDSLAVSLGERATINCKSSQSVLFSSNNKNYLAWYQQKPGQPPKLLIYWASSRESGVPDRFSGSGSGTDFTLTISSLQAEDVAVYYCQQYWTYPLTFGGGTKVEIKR
# B11: 27597 (antibody, human IgG4 S228P, kappa, V domains shown)
# VH: QVQLVQSGAEVKKPGSSVKVSCKASGGTFSSYAISWVRQAPGQGLEWMGSIIPIFGTANYAQKFQGRVTITADESTSTAYMELSSLRSEDTAVYYCAREGRGYDSSRYYKFWFDPWGQGTLVTVSS
# VL: EIVLTQSPATLSLSPGERATLSCRASQSVSSYLAWYQQKPGQAPRLLIYDASNRATGIPARFSGSGSGTDFTLTISSLEPEDFAVYYCQQFVLWPRTFGGGTKVEIKR
# Molecular target: T1, cynomolgus macaque (Macaca …)
# Test: flow cytometry, 100 nM IgG, MFI on CHO-cCD39 / MFI on parental CHO;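 further: antibodies bound to the cells for 30 min in PBS, then bound IgG was revealed with a fluorescent goat anti-human IgG secondary antibody, 20 min on ice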
row,Cell Binding (FOB) [fold over background],Binder
1,3570,B1
2,4650,B2
3,3570,B3
4,3360,B4
5,2960,B5
6,5480,B6
7,5080,B7
8,1340,B8
9,4540,B9
10,4580,B10
11,908,B11

# Molecular target: T2, human CD39 (cellular)
# Test: flow cytometry, 100 nM IgG, MFI on CHO-hCD39 / MFI on parental CHO;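 further: cells exposed to IgG for 30 min on ice in PBS, bound antibody then revealed with a fluorescent goat anti-human IgG secondary (20 min, on ice)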
# Protocol: 100 nanomolar IgGs (each antibody is indicated as a unique clone number in the FIG.) were incubated at 25° C. for 30 minutes on ice in phosphate buffered saline (PBS) with parental CHO cells or CHO cells engineered to express either human or cynomolgus macaque (Macaca fascicularis) CD39 (CHO CD39 cells). Cells were then washed with ice cold PBS and incubated with a fluorescently labeled goat-anti-human IgG for 20 minutes on ice. Cells were washed and resuspended in ice cold PBS prior to analysis by flow cytometry.
row,Cell Binding (FOB) [fold over background],Binder
1,1240,B1
2,1030,B2
3,1220,B3
4,1170,B4
5,1060,B5
6,1430,B6
7,1320,B7
8,1020,B8
9,1040,B9
10,1090,B10
11,799,B11

# Molecular target: T3, Chimera #9
# Test: FACS on CHO cells, 15 ug/ml; Chimera 2 with human D150 ([..])
# Protocol: The chimeras were expressed in CHO cells and the ability of anti-human CD39 antibodies to bind the chimeras tested via FACS. In brief, cells were washed and blocked in FACS buffer (PBS/2% FBS) for 30 min on ice. […] After 2 washes, cells were resuspended in FACS buffer and analyzed on BD Fortessa. Data was processed with FlowJo. Positive binding was scored as “yes” and lack of binding was scored as “NO” and examples of FACS plots used to generate this table are in FIGS. 14.F and 14.G.
row,binding result,Binder
1,binds,B1

# Molecular target: T4, Chimera #10
# Test: FACS on CHO cells, 15 ug/ml; Chimera 2 with human E153 ([..])
# Protocol: (§1) The chimeras were expressed in CHO cells and the ability of anti-human CD39 antibodies to bind the chimeras tested via FACS. In brief, cells were washed and blocked in FACS buffer (PBS/2% FBS) for 30 min on ice. […] After 2 washes, cells were resuspended in FACS buffer and analyzed on BD Fortessa. Data was processed with FlowJo.
row,binding result,Binder
1,binds,B1

# Molecular target: T5, Chimera #4
# Test: FACS on CHO cells, 15 ug/ml; human M1-S274 + mouse GGV + human L278-V510
# Protocol: as §1
row,binding result,Binder
1,binds,B1
2,binds,B7

# Molecular target: T6, Chimera #2
# Test: FACS on CHO cells; human M1-E142 + mouse Q143-S158 ([..]) + human Y159-V510
# Protocol: as §1
row,binding result,Binder
1,no binding (tested: 15 ug/ml),B1
